Assay results: paper PMC4166353

Assays:
[1] = target: Complement component C4
[2] = target: Fluorescence quenched C4 P4-P4' substrate, 2-aminobenzoate-GLQRALEI-Lys(Dinitrophenol)-NH2

Substance	EC50 for cleavage of the C4 alpha chain (C4 1 uM, enzyme 0-5 nM, 1 h, 37 C, SDS-PAGE densitometry) [1] [nM]	kcat/K0.5 for cleavage of the fluorescence quenched C4 P4-P4' peptide (400 nM enzyme, 0.5-500 uM substrate, 37 C) [2] [M⁻¹ s⁻¹]
Recombinant human C1s K628A mutant, activated (from UniProt P09871 16-688) (enzyme)	0.77	110000
Recombinant human C1s K628Q mutant, activated (from UniProt P09871 16-688) (enzyme)	0.76	95000
Recombinant human C1s, wild type, activated (from UniProt P09871 16-688) (enzyme)	0.16	82000
